Experimental data taken from patent publication US20220033501A1 (SHANGHAI PHARMAEXPLORER, published 2022).
Substitutions are numbered along the chain they refer to.

Experiments:
[1] = biological target: T1, human TIM-3 on CHOK1 stable cell line (CHOK1-hTIM-3) (human, UniProt Q8TDQ0 22-301); assay: FACS, CHOK1-hTIM-3 cells, 40 nM antibody
T1 sequence: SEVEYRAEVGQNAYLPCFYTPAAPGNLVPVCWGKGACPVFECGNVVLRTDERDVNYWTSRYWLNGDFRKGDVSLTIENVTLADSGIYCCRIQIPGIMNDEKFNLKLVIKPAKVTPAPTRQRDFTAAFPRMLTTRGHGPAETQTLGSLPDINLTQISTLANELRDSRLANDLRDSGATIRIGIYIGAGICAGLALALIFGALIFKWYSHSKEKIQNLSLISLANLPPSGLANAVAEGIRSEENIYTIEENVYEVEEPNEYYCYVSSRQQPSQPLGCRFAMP

[2] = biological target: T2, human TIM-3 extracellular domain protein with hFc tag (hTIM-3-hFc) (human, UniProt Q8TDQ0 22-200); assay: ELISA, coated human TIM-3 ECD protein, 0.0001 nM antibody
T2 construct: not shown: human IgG Fc fragment (hFc) of the pCpC vector
T2 sequence: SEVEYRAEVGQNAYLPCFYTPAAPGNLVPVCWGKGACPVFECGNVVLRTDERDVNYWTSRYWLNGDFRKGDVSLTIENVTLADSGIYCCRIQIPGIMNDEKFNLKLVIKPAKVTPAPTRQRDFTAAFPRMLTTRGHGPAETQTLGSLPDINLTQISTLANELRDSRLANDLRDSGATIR

[3] = biological target: T2, human TIM-3 extracellular domain …; assay: ELISA, coated human TIM-3 ECD protein, 0.0007 nM antibody
[4] = biological target: T2, human TIM-3 extracellular domain …; assay: ELISA, coated human TIM-3 ECD protein, 0.0667 nM antibody
[5] = biological target: T3, murine TIM-3 extracellular domain protein with hFc tag (mTIM-3-hFc) (mouse, UniProt Q8VIM0 29-191); assay: ELISA, coated mouse TIM-3 ECD protein, 0.6667 nM antibody
T3 construct: also called mouse TIM-3 extracellular domain protein; not shown: human IgG Fc fragment (hFc) of the pCpC vector
T3 chain: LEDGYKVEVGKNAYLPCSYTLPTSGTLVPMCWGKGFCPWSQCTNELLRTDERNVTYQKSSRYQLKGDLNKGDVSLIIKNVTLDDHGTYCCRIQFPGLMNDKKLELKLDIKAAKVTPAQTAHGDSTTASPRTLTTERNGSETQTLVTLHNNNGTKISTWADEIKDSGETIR

[6] = biological target: T4, monkey TIM-3 extracellular domain protein with hFc tag (cTIM-3-hFc) (monkey); assay: ELISA, coated monkey TIM-3 ECD protein, 0.0667 nM antibody
T4 construct: not shown: human IgG Fc fragment (hFc) of the pCpC vector
T4 chain: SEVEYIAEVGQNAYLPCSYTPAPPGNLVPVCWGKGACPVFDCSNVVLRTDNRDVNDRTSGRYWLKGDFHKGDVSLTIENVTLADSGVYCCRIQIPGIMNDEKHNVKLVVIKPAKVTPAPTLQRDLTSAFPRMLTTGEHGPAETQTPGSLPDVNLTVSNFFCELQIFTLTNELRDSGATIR

[7] = biological target: T5, human TIM-3 protein with hFc tag (hTIM-3-hFc protein) (human, UniProt Q8TDQ0 22-200); assay: ELISA, coated hTIM-3-hFc; antibody 6.6667 nM
T5 construct: also called immunogen 1; human TIM-3 extracellular domain protein; not shown: human IgG Fc fragment (hFc) of the pCpC vector
T5 sequence: T2 sequence
Text: (§1) The amino acid sequence 22-200 of the extracellular domain of the human TIM-3 protein described in the step of Example 1 (as shown in SEQ ID NO. 71 in the sequence listing) was cloned into a pCpC vector having a human IgG Fc fragment (hFc), and transfected into HEK293 cells. The cell culture medium was collected, and purified to obtain the human TIM-3 protein with hFc tag (herein referred to as hTIM-3-hFc protein). The amino acid sequence 22-201 of the extracellular domain of the monkey TIM-3 protein (as shown in SEQ ID NO. 72 in the sequence listing) was cloned into a pCpC vector having a human IgG Fc fragment (hFc), and transfected into HEK293 cells. The cell culture medium was collected, and purified to obtain the monkey TIM-3 protein with hFc tag (herein referred to as cTIM-3-hFc protein). […] The cell culture medium was collected, and purified to obtain the murine TIM-3 protein with hFc tag (herein referred to as mTIM-3-hFc protein). Purified human, monkey, and mouse TIM-3 extracellular domain proteins (hTIM-3-hFc, cTIM-3-hFc, and mTIM-3-hFc) were diluted with PBS to a final concentration of 1.0 μg/ml and then added to a 96-well ELISA plate with 100 μl per well. The plate was sealed with plastic film and incubated overnight at 4° C. The plate was washed 4 times with the plate washing solution (PBS+0.01% Tween20) on the next day, and added with the blocking solution (PBS+0.01% Tween20+1% BSA) and sealed at room temperature for 1-2 hours. The blocking solution was poured out. 50-100 μl of the antibody sample to be tested was added to each well. The plate was incubated at 37° C. for 1-2 hours, and washed 2-3 times with plate washing solution (PBS+0. 01% Tween20). HRP (horseradish peroxidase) labeled secondary antibody was added. The plate was incubated at 37° C. for 1-2 hours, and washed 2-3 times with plate washing solution (PBS+0. 01% Tween20). […] of TMB substrate was added to each well. After incubated at room temperature for 15-30 minutes, the plate was added with […] stop solution (1.0N HCl) to each well. An ELISA plate reader (TiterMax 384plus, Molecular Device) was used to read the A450 nm value.

[8] = biological target: T6, murine TIM-3 protein with hFc tag (mTIM-3-hFc protein) (mouse; human, UniProt Q8VIM0 29-191); assay: ELISA, coated mTIM-3-hFc; antibody 0.0007 nM
T6 construct: Made in HEK293 cells; also called mouse TIM-3 extracellular domain protein; not shown: human IgG Fc fragment (hFc) of the pCpC vector
T6 chain: T3 chain
Text: as §1

[9] = biological target: T6, murine TIM-3 protein with hFc tag …; assay: ELISA, coated mTIM-3-hFc; antibody 6.6667 nM
Text: as §1

B1: 7A4F10 fully human TIM-3 antibody (human IgG4, kappa) (antibody, V domains shown)
VH: EVQLLESGGGLVQPGGSLRLSCAASGFTFRTHLISWVRQAPGKGLEWVAAITGSGGSTYYADSVKGRFIISRDNSKNTLFLQMNSLRAEDTAVYYCAKDGGSGSYDDFWGQGTLVTVSS
VL: ETVLTQSPVTLSLSPGERATLSCRASQSVGSYLAWYQQKPGQAPRLLIYDASNRATGIPARFSGSGSGTDFTLTISSLEPEDFAVYYCQQRSNWPPTFGQGTKVEIK
Mean fluorescence intensity [1]: 313
OD450 [2]: 0.08
OD450 [3]: 0.11
OD450 [4]: 1.69
OD450 [5]: 0.25
OD450 [6]: 0.68

B2: 7A4F10 (TIM-3 antibody purified from hybridoma, chimeric antibody of Example 2) (antibody, V domains shown)
VH: B1 VH
VL: B1 VL
notes: From hybridoma of Harbour H2L2 transgenic mice: human variable regions, rat constant regions
OD450 [7]: 2.92
OD450 [8]: 0.64
OD450 [9]: 0.67

B3: 34B6D8 fully human TIM-3 antibody (human IgG4, kappa) (antibody, V domains shown)
VH: EVQLVESGGGLVQPGGSLRLSCAASGFTFSTYWMTWVRQAPGKRLEWVANIKQGGGDKYYVDSVKGRFTISTDNAKNSLYLQMNSLRAEDTAVYYCARGSNWFDPWGQGTLVTVSS
VL: EIVMTQSPATLSMSPGERATLSCRASQSVYDNLAWYQQKPGQAPRLLIYGASTRATGIPARFSGSGSGTEFTLTISSLQSEDFALYYCQQYTHWPITFGQGTRLEIK
Mean fluorescence intensity [1]: 221
OD450 [2]: 0.09
OD450 [3]: 0.11
OD450 [4]: 1.58
OD450 [5]: 0.27
OD450 [6]: 1.71

B4: 34B6D8 (TIM-3 antibody purified from hybridoma, chimeric antibody of Example 2) (antibody, V domains shown)
VH: B3 VH
VL: B3 VL
notes: as for B2
OD450 [7]: 3.4
OD450 [8]: 0.65
OD450 [9]: 0.74

B5: 215A8F2 fully human TIM-3 antibody (human IgG4, kappa) (antibody, V domains shown)
VH: QVQLQQWGAGLLKPSETLSLTCTVYGGSFSGYYWNWIRQPPGKGLEWLGEINHSGSTNYNPSLKRRVTISVDTSKNQFSLKLSSVTAADTAVYYCARVYYYGPFDFWGQGTLVTVSS
VL: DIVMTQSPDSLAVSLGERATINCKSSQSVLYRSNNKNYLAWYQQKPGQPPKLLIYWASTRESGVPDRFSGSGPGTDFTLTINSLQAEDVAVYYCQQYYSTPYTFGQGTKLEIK
Mean fluorescence intensity [1]: 283
OD450 [2]: 0.08
OD450 [3]: 0.1
OD450 [4]: 1.29
OD450 [5]: 0.24
OD450 [6]: 1.37

B6: 215A8F2 (TIM-3 antibody purified from hybridoma, chimeric antibody of Example 2) (antibody, V domains shown)
VH: B5 VH
VL: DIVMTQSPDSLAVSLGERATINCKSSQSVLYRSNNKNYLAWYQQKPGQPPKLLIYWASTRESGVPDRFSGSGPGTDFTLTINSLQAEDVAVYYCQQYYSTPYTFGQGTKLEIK
notes: as for B2
OD450 [7]: 3.15
OD450 [8]: 0.67
OD450 [9]: 0.68

B7: 57F4E5 fully human TIM-3 antibody (human IgG4, kappa) (antibody, V domains shown)
VH: EVQLVESGGGLVQPGGSLRLSCAASGFTFSSYWMSWVRQAPGKGLEWVANIKQDGSEKYYVDSVKGRFTISRDSAKNSLYLQMNSLRAEDTAMYFCARDSNFFDYWGQGTLVTVSS
VL: ETVMTQSPATLSVSPGERATLSCRASQSVSSNLAWYQRKPGQAPRLLIYFSSTRATGIPARFSGSGSGTEFTLTISSLQSEDFAVYYCQQYNNWPLTFGGGTKVEIK
Mean fluorescence intensity [1]: 147
OD450 [2]: 0.08
OD450 [3]: 0.11
OD450 [4]: 1.22
OD450 [5]: 0.28
OD450 [6]: 1.34

B8: 18D2H2 (TIM-3 antibody purified from hybridoma, chimeric antibody of Example 2) (antibody, V domains shown)
VH: B3 VH with G10D, K43R, R44G, G54D, G56S, D57A, I70L, T72R, N74D, P105Y
VL: B7 VL with S26N, S28N, S30Y, R38Q, F50D, S51A, I58F
notes: as for B2
OD450 [7]: 2.86
OD450 [8]: 0.64
OD450 [9]: 0.69

B9: 134H3G6 (TIM-3 antibody purified from hybridoma, chimeric antibody of Example 2) (antibody, V domains shown)
VH: EVQLVESGGGLVQPGGSLRLSCAASGFTFSNSWMTWVRQAPGKGLEWVANIKQAGTEKYYVDSVKGRFTISRDNAKNSLYLQMNSLRAEDTAVYYCNSGSNYFDYWGQGTLVTVSS
VL: B7 VL with T2I, S26R, S28N, V29F, S30Y, R38Q, F50G, S51A
notes: as for B2
OD450 [7]: 2.57
OD450 [8]: 0.62
OD450 [9]: 0.67

B10: 18D2H2 fully human TIM-3 antibody (human IgG4, kappa) (antibody, V domains shown)
VH: B3 VH with G10D, K43R, R44G, G54D, G56S, D57A, I70L, T72R, N74D, P105Y
VL: B7 VL with S26N, S28N, S30Y, R38Q, F50D, S51A, I58F
Mean fluorescence intensity [1]: 257
OD450 [2]: 0.08
OD450 [3]: 0.11
OD450 [4]: 1.57
OD450 [5]: 0.22
OD450 [6]: 1.56

B11: 134H3G6 fully human TIM-3 antibody (human IgG4, kappa) (antibody, V domains shown)
VH: B9 VH
VL: B7 VL with T2I, S26R, S28N, V29F, S30Y, R38Q, F50G, S51A
Mean fluorescence intensity [1]: 218
OD450 [2]: 0.1
OD450 [3]: 0.1
OD450 [4]: 1.28
OD450 [5]: 0.23
OD450 [6]: 1.3

B12: 39E5H1 (TIM-3 antibody purified from hybridoma, chimeric antibody of Example 2) (antibody, V domains shown)
VH: B3 VH with T31S, T35S, R44G, Q53R, G56S, D57E, K58R, T72G, L79V
VL: B3 VL with I2T, T10I, M13V, D31S, P40L, G50D, L85V, T92N, H93N
notes: as for B2
OD450 [7]: 3.34
OD450 [8]: 0.63
OD450 [9]: 0.68

B13: 57F4E5 (TIM-3 antibody purified from hybridoma, chimeric antibody of Example 2) (antibody, V domains shown)
VH: B7 VH
VL: B7 VL
notes: as for B2
OD450 [7]: 3.29
OD450 [8]: 0.67
OD450 [9]: 0.69
